Measurements as given in EP4772193A1 (Teijin Pharma Limited, dated 2026).

Tests used:
[1] = target: T1, recombinant human soluble gpNMB (recombinant human gpNMB-FLAG-His) (human, UniProt Q14956 23-498); test: antigen ELISA
T1 sequence: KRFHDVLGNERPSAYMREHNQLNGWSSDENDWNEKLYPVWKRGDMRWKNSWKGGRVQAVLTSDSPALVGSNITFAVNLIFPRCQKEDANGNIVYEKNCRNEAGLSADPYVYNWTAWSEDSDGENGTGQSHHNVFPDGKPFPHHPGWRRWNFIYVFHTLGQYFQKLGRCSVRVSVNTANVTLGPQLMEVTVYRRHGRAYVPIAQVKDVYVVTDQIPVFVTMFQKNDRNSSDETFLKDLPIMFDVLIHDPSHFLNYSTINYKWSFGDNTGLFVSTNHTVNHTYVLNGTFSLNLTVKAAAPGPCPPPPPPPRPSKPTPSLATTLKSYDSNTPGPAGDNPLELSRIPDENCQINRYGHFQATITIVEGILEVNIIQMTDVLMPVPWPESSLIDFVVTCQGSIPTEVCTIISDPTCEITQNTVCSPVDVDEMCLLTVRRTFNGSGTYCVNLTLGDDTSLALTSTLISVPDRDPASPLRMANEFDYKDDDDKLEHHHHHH

[2] = target: T1, recombinant human soluble gpNMB …; test: antigen ELISA, vs hGPN06-1_H1L1
[3] = target: T2, human gpNMB (Human Osteoactivin, His-tag, AcroBioSystems) (human, UniProt Q14956-2 23-486, limits assumed); test: SPR Biacore 8K, antibody captured on protein A, gpNMB as analyte
T2 sequence (looked up): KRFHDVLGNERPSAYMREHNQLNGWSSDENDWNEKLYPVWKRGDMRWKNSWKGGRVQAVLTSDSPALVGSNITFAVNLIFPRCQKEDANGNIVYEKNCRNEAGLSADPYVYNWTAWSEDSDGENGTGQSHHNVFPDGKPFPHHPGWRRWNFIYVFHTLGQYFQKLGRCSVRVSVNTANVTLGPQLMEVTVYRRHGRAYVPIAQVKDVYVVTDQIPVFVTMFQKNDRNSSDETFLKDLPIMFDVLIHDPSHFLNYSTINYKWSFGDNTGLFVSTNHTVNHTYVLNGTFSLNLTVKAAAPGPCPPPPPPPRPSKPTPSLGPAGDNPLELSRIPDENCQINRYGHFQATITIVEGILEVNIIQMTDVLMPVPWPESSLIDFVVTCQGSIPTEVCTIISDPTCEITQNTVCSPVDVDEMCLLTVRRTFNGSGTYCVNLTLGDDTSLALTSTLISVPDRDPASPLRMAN

Row | Binder | EC50 [1] [nM] | Relative binding activity [2] | Kd [3] [nM] | koff [3] [s⁻¹] | kon [3] [M⁻¹ s⁻¹]
1 | hGPN06-1_H1L1 VH D31A (antibody, V domains shown) VH: QVQLVQSGAEVKKPGASVKVSCKASGYTFTANWMGWVKQRPGQGLEWIGAIDPSDSFTNYNQNFKGRVTMTVDTSISTAYMELSRLRSDDSAVYFCTRSGYYGSPKLGGDYWGQGTLVTVSS VL: EIVLTQSPSSLSASVGDRVTITCSASSSISYMHWYQQKSGTAPKLLIYSTSNLASGVPSRFSGSGSGTDFTFTISSLQPEDAATYYCHQWNSYPCTFGGGTKLEIK | 0.515 | 1.26 | – | – | –
2 | hGPN06-1_H1L1 VH D52A (antibody, V domains shown) VH: QVQLVQSGAEVKKPGASVKVSCKASGYTFTDNWMGWVKQRPGQGLEWIGAIAPSDSFTNYNQNFKGRVTMTVDTSISTAYMELSRLRSDDSAVYFCTRSGYYGSPKLGGDYWGQGTLVTVSS VL: EIVLTQSPSSLSASVGDRVTITCSASSSISYMHWYQQKSGTAPKLLIYSTSNLASGVPSRFSGSGSGTDFTFTISSLQPEDAATYYCHQWNSYPCTFGGGTKLEIK | 2.79 | 0.51 | – | – | –
3 | hGPN06-1_H1L1 VH F29A (antibody, V domains shown) VH: QVQLVQSGAEVKKPGASVKVSCKASGYTATDNWMGWVKQRPGQGLEWIGAIDPSDSFTNYNQNFKGRVTMTVDTSISTAYMELSRLRSDDSAVYFCTRSGYYGSPKLGGDYWGQGTLVTVSS VL: EIVLTQSPSSLSASVGDRVTITCSASSSISYMHWYQQKSGTAPKLLIYSTSNLASGVPSRFSGSGSGTDFTFTISSLQPEDAATYYCHQWNSYPCTFGGGTKLEIK | 4.8 | 0.54 | – | – | –
4 | hGPN06-1_H1L1 VH F57A (antibody, V domains shown) VH: QVQLVQSGAEVKKPGASVKVSCKASGYTFTDNWMGWVKQRPGQGLEWIGAIDPSDSATNYNQNFKGRVTMTVDTSISTAYMELSRLRSDDSAVYFCTRSGYYGSPKLGGDYWGQGTLVTVSS VL: EIVLTQSPSSLSASVGDRVTITCSASSSISYMHWYQQKSGTAPKLLIYSTSNLASGVPSRFSGSGSGTDFTFTISSLQPEDAATYYCHQWNSYPCTFGGGTKLEIK | 32.5 | 0.09 | – | – | –
5 | hGPN06-1_H1L1 VH F64A (antibody, V domains shown) VH: QVQLVQSGAEVKKPGASVKVSCKASGYTFTDNWMGWVKQRPGQGLEWIGAIDPSDSFTNYNQNAKGRVTMTVDTSISTAYMELSRLRSDDSAVYFCTRSGYYGSPKLGGDYWGQGTLVTVSS VL: EIVLTQSPSSLSASVGDRVTITCSASSSISYMHWYQQKSGTAPKLLIYSTSNLASGVPSRFSGSGSGTDFTFTISSLQPEDAATYYCHQWNSYPCTFGGGTKLEIK | 0.448 | 1.11 | – | – | –
6 | hGPN06-1_H1L1 VH G26A (antibody, V domains shown) VH: QVQLVQSGAEVKKPGASVKVSCKASAYTFTDNWMGWVKQRPGQGLEWIGAIDPSDSFTNYNQNFKGRVTMTVDTSISTAYMELSRLRSDDSAVYFCTRSGYYGSPKLGGDYWGQGTLVTVSS VL: EIVLTQSPSSLSASVGDRVTITCSASSSISYMHWYQQKSGTAPKLLIYSTSNLASGVPSRFSGSGSGTDFTFTISSLQPEDAATYYCHQWNSYPCTFGGGTKLEIK | 1.21 | 1.08 | – | – | –
7 | hGPN06-1_H1L1 VH G35A (antibody, V domains shown) VH: QVQLVQSGAEVKKPGASVKVSCKASGYTFTDNWMAWVKQRPGQGLEWIGAIDPSDSFTNYNQNFKGRVTMTVDTSISTAYMELSRLRSDDSAVYFCTRSGYYGSPKLGGDYWGQGTLVTVSS VL: EIVLTQSPSSLSASVGDRVTITCSASSSISYMHWYQQKSGTAPKLLIYSTSNLASGVPSRFSGSGSGTDFTFTISSLQPEDAATYYCHQWNSYPCTFGGGTKLEIK | 3.55 | 1.4 | – | – | –
8 | hGPN06-1_H1L1 VH G66A (antibody, V domains shown) VH: QVQLVQSGAEVKKPGASVKVSCKASGYTFTDNWMGWVKQRPGQGLEWIGAIDPSDSFTNYNQNFKARVTMTVDTSISTAYMELSRLRSDDSAVYFCTRSGYYGSPKLGGDYWGQGTLVTVSS VL: EIVLTQSPSSLSASVGDRVTITCSASSSISYMHWYQQKSGTAPKLLIYSTSNLASGVPSRFSGSGSGTDFTFTISSLQPEDAATYYCHQWNSYPCTFGGGTKLEIK | 0.373 | 1.09 | – | – | –
9 | hGPN06-1_H1L1 VH I51A (antibody, V domains shown) VH: QVQLVQSGAEVKKPGASVKVSCKASGYTFTDNWMGWVKQRPGQGLEWIGAADPSDSFTNYNQNFKGRVTMTVDTSISTAYMELSRLRSDDSAVYFCTRSGYYGSPKLGGDYWGQGTLVTVSS VL: EIVLTQSPSSLSASVGDRVTITCSASSSISYMHWYQQKSGTAPKLLIYSTSNLASGVPSRFSGSGSGTDFTFTISSLQPEDAATYYCHQWNSYPCTFGGGTKLEIK | 0.993 | 0.89 | – | – | –
10 | hGPN06-1_H1L1 VH K65A (antibody, V domains shown) VH: QVQLVQSGAEVKKPGASVKVSCKASGYTFTDNWMGWVKQRPGQGLEWIGAIDPSDSFTNYNQNFAGRVTMTVDTSISTAYMELSRLRSDDSAVYFCTRSGYYGSPKLGGDYWGQGTLVTVSS VL: EIVLTQSPSSLSASVGDRVTITCSASSSISYMHWYQQKSGTAPKLLIYSTSNLASGVPSRFSGSGSGTDFTFTISSLQPEDAATYYCHQWNSYPCTFGGGTKLEIK | 0.406 | 1.1 | – | – | –
11 | hGPN06-1_H1L1 VH M34A (antibody, V domains shown) VH: QVQLVQSGAEVKKPGASVKVSCKASGYTFTDNWAGWVKQRPGQGLEWIGAIDPSDSFTNYNQNFKGRVTMTVDTSISTAYMELSRLRSDDSAVYFCTRSGYYGSPKLGGDYWGQGTLVTVSS VL: EIVLTQSPSSLSASVGDRVTITCSASSSISYMHWYQQKSGTAPKLLIYSTSNLASGVPSRFSGSGSGTDFTFTISSLQPEDAATYYCHQWNSYPCTFGGGTKLEIK | 3.55 | 1.06 | – | – | –
12 | hGPN18-5_H2L2 (antibody, V domains shown, humanized; also called hGPN18-5_VH2+VL2) VH: QVQLVQSGAEVKKPGASVKVSCKASGYTFTTYWMNWVRQAPGQGLEWIGAINPSNDYTEYNQKFKDRATMTADTSTSTVYMELSSLRSEDTAVYYCGRSYSPDYWGQGTTVTVSS VL: DIQMTQSPSSLSASVGDRVTITCKASQNVDNHVAWFQQKPGKAPKALIYSASYRYSGVPDRFSGSGSGTDFTLTISSLQPEDFATYFCQQYKSYPFTFGGGTKLEIK | – | – | 763 | 0.00403 | 5280
13 | hGPN18-5_H1L2 (antibody, V domains shown, humanized; also called hGPN18-5_VH1+VL2) VH: QVQLVQSGAEVKKPGASVKVSCKASGYTFTTYWMNWVRQAPGQGLEWIGAINPSNDYTEYNQKFKDRVTMTADTSTSTVYMELSSLRSEDTAVYYCGRSYSPDYWGQGTTVTVSS VL: DIQMTQSPSSLSASVGDRVTITCKASQNVDNHVAWFQQKPGKAPKALIYSASYRYSGVPDRFSGSGSGTDFTLTISSLQPEDFATYFCQQYKSYPFTFGGGTKLEIK | – | – | 423 | 0.00396 | 9380
14 | hGPN18-5_H1L3 (antibody, V domains shown, humanized; also called hGPN18-5_VH1+VL3; GPN18-5-VH1+VL3) VH: QVQLVQSGAEVKKPGASVKVSCKASGYTFTTYWMNWVRQAPGQGLEWIGAINPSNDYTEYNQKFKDRVTMTADTSTSTVYMELSSLRSEDTAVYYCGRSYSPDYWGQGTTVTVSS VL: DIQMTQSPSSLSASVGDRVTITCKASQNVDNHVAWHQQKPGKAPKALIYSASYRYSGVPDRFTGSGSGTDFTLTISSLQPEDFADYFCQQYKSYPFTFGGGTKLEIK | – | – | 214 | 0.00153 | 7150
15 | hGPN18-5_H2L1 (antibody, V domains shown, humanized; also called hGPN18-5_VH2+VL1) VH: QVQLVQSGAEVKKPGASVKVSCKASGYTFTTYWMNWVRQAPGQGLEWIGAINPSNDYTEYNQKFKDRATMTADTSTSTVYMELSSLRSEDTAVYYCGRSYSPDYWGQGTTVTVSS VL: DIQMTQSPSSLSASVGDRVTITCKASQNVDNHVAWFQQKPGKAPKALIYSASYRYSGVPSRFSGSGSGTDFTLTISSLQPEDFATYFCQQYKSYPFTFGGGTKLEIK | – | – | 661 | 0.00454 | 6870
16 | hGPN18-5_H2L3 (antibody, V domains shown, humanized; also called hGPN18-5_VH2+VL3; GPN18-5-VH2+VL3) VH: QVQLVQSGAEVKKPGASVKVSCKASGYTFTTYWMNWVRQAPGQGLEWIGAINPSNDYTEYNQKFKDRATMTADTSTSTVYMELSSLRSEDTAVYYCGRSYSPDYWGQGTTVTVSS VL: DIQMTQSPSSLSASVGDRVTITCKASQNVDNHVAWHQQKPGKAPKALIYSASYRYSGVPDRFTGSGSGTDFTLTISSLQPEDFADYFCQQYKSYPFTFGGGTKLEIK | – | – | 190 | 0.00148 | 7780
17 | hGPN18-5_H3L2 (antibody, V domains shown, humanized; also called hGPN18-5 VH3+VL2) VH: QVQLVQSGAEVKKPGASVKVSCKASGYTFTTYWMNWVRQAPGQGLEWIGAINPSNDYTEYNQKFKDRAIMTADKSTSTVYMELSSLRSEDTAVYYCGRSYSPDYWGQGTTVTVSS VL: DIQMTQSPSSLSASVGDRVTITCKASQNVDNHVAWFQQKPGKAPKALIYSASYRYSGVPDRFSGSGSGTDFTLTISSLQPEDFATYFCQQYKSYPFTFGGGTKLEIK | – | – | 548 | 0.00436 | 7950
